For one experiment, the system named is Raji-Luc and Daudi-Luc. Briefly: IFN-gamma and IL-2 secretion by CD22 CAR primary T cells. The class given is cell-based, human. Conditions: E:T 10 to 1, 20-hr co-culture. On the procedure:
CD22 CAR constructs were also tested for the ability to promote secretion of IFN-gamma and IL-2. Briefly, transduced primary T cells from healthy donors expressing the different CD22 CARs were co-cultured with the CD22-positive target cells Raji-Luc and Daudi-Luc as well as the negative control K562-Luc. T cells and target cell were cultured in an effector-to-target cell ratio (E:T) of 10 to 1. Supernatants were harvested after 20-hr co-culture. […] Similar results were observed when Nalm6-Luc, Pfeiffer-Luc, and K562-CD22-Luc, and SEM-Luc cells were tested (data not shown). Minimal IFN-gamma secretion was observed when the K562-Luc negative control cell line was tested (bottom panel).

Experiment [1] concerns Raji, SEM, K562-hCD22, Daudi, and Nalm6. Briefly: Primary T-cell tumor target killing assay. It is filed as cell-based, human. From the text: Primary T-cells activated and transduced as described above were mixed with target cell lines stably expressing luciferase at the ratios indicated (FIG. 20A-20F). […] Untransduced T-cells (UTD) lacked the ability to kill target cell lines.

Experiment [2] addresses recombinant human CD22-Fc (Homo sapiens, UniProt P20273). As to the kind of experiment: Surface expression of CD22 CAR in primary human T-cells (Protein-L, rhCD22-Fc). The settings on record: day 10, flow cytometry. It is filed as cell-based. How it is done: Primary human T-cells were activated with anti-CD3/antiCD28 stimulatory beads on day 0, followed by lentiviral transduction of specified CAR constructs on day 1. Cells were expanded in vitro until day, 10 at which point they were analyzed by flow cytometry for surface expression of CAR. Two different approaches were utilized to determine surface expression of CAR: Protein-L-biotin followed by streptavidin-PE, and recombinant human CD22-Fc followed by anti-Fc-alexafluor 488. […] CD22 CAR m971 served as a positive control for binding both Protein-L and hrCD22-Fc, and Isotype CAR with no specificity (anti-gH) served as a positive control for Protein-L. T cells expressing no CAR were used as a negative control.
For orientation: In flow cytometry, cells or beads pass a laser one at a time.

In the next experiment the test system is CD22. Briefly: NFAT assay of CD22 CAR in JNL cells on antigen-coated plates. The class given is cell-based, human. How it is done: Several CD22 CAR constructs were functionally validated in an NFAT assay. Briefly the experiments were performed as follows. A lentiviral vector (pELPS) carrying a nucleic acid, encoding a CD22 CAR with a CD22-binding scFv domain was introduced by electroporation into a Jurkat T cell line modified to express luciferase under the control of an NFAT response element (JNL). The cells were cultured and allowed to express the CAR construct. The electroporated cells were applied to a plate coated with the target antigen (CD22). Detection of luciferase signal in the coated plate was indicative of binding activity of the CD22 CAR to its antigen, leading to activation of the T cells and expression of luciferase.
The results also indicate that the different scFvs compete with m971 to different extents.
FIG. 72 is a graph showing the activation (in RLU) of several CD22 CAR-expressing JNL cells including CD22-57, CD22-58, CD22-59, CD22-60, CD22-61, CD22-62, and CD22-63, the scFv sequences of which are provided herein. Three different target proteins (CD22-FL-Fc, CD22-D567-Fc, and CD22-D67) were used to coat the tissue culture plates; a negative control (Fc) was also included. A mesothelin binding CAR (Meso-G07) was used as a negative control. CD22-12 and CD22-53 were used as positive controls. […] Domain mapping was performed on CD22 binding domains. Three different forms of antigens were used: CD22 full-length with all 7 external domains, Domain567 (in which domains 1-4 were deleted) and Domain67 (in which domains 1-5 were deleted). While not wishing to be bound by theory, it appears that the binding of various CD22 clones maps to the epitopes illustrated in FIG. 75.
Two scFvs, named CD22-64 and CD22-65, were produced by affinity maturation of hCD22-12. CAR constructs containing these scFvs were tested for activity in an NFAT assay as described above. […] The bars in the figure represent, from left to right, CD22 full length-Fc; CD22 D567-Fc; and an Fc only negative control used for coating of the plates.

The test system of the next experiment is CD19 and CD22. Briefly: NFAT assay of bispecific CAR19/CAR22 constructs. It is filed as cell-based. How it is done: The bispecific CD19-CD22 and CD22-CD19 constructs described above were tested in an NFAT assay, as described in the Examples below. As controls, an anti-CD19 alone CAR and an anti-CD22 alone CAR were used.
A further experiment has as its system cynomolgus CD123. As to the kind of experiment: Cross-reactivity of anti-CD123 clones with cynomolgus CD123. It is filed as binding. From the text:
Their activity was compared against mouse clones 1172 and 1176, comprising the VH and VL domains in a light-to-heavy orientation with a CD8 hinge domain, CD8 transmembrane domain, and 41BB-costimulatory domain. […] 1172 is not.

The subject of experiment [3] is luciferase-expressing mantle cell line (RL luc). As to the kind of experiment: RL luc mantle cell lymphoma xenograft, CART19 with exogenous IL-7. It is filed as in vivo, NSG mice. How it is done:
Next, the effect of exogenous IL-7 treatment on anti-tumor activity of CART19 cells was assessed in a lymphoma animal model. NSG mice were engrafted with a luciferase-expressing mantle cell line (RL luc) on Day 0 (D0), followed by treatment of CART19 cells on Day 6. The NSG mice were divided into groups, where one group received no CART19 cells, a second group received 0.5×10^6 CART19 cells, a third group received 1×10^6 CART19 cells, and a fourth group received 2×10^6 CART19 cells. Tumor size was monitored by measuring the mean bioluminescence of the engrafted tumors over more than 80 days. […] When comparing the tumor burden of mice that received IL-7 treatment to control, before and after IL-7 treatment, tumor reduction in tumor burden was only seen in the mice that had received IL-7 treatment (FIG. 10C).
T cell dynamics following IL-7 treatment in the lymphoma animal model was also examined. Human CART19 cells were not detectable in the blood prior to IL-7 treatment. […] The extent of T cell expansion observed in mice receiving the IL-7 also correlated with tumor response. The mouse with the highest number of T cells detected in the blood at peak expansion during IL-7 treatment (mouse #3815) had the most robust reduction in tumor burden (see FIG. 10B). Moreover, the time of peak expansion correlated with the T cell dose injected as baseline. The number/level CD3-expressing cells in the blood were also measured before and after IL-7 treatment.

B1: CD22-12: human CD22 CAR, parent of CD22-64 and CD22-65 (protein)
scFv: EVQLQQSGPGLVKPSQTLSLTCAISGDSVLSNSDTWNWIRQSPSRGLEWLGRTYHRSTWYDDYASSVRGRVSINVDTSKNQYSLQLNAVTPEDTGVYYCARDRLQDGNSWSDAFDVWGQGTMVTVSSGGGGSGGGGSGGGGSQSALTQPASASGSPGQSVTISCTGTSSDVGGYNYVSWYQQHPGKAPKLMIYDVSNRPSGVSNRFSGSKSGNTASLTISGLQAEDEADYYCSSYTSSSTLYVFGTGTQLTVL
As to B1, in the experiment with Raji-Luc and Daudi-Luc, the IFN-gamma secretion result was “induced IFN-gamma secretion”. Moreover, the “activity in cell killing and cytokine secretion assays (Example 9)” value in experiment [1] was “activity comparable to m971”. In addition, the target cell killing entry in experiment [1] (CD22 expressing luciferase target cell lines) is recorded as “dose-dependent target cell killing”. In addition, in experiment [2], the “surface expression of CAR” value is on record as “positive surface expression”. In addition, in the experiment on CD22, the “activity (see Example 25)” value is reported as “found to have activity”. Further, in the experiment with CD22 (with and without m971 scFv competitor), the “antigen binding / activation (RLU) vs m971” value is “bind the antigen approximately as well as the m971 positive control”.

B2: CD19-CD22: bispecific scFv tandem fusion CAR, humanized anti-CD19 (104876) and hCD22-2 (protein)
scFv: EIVMTQSPATLSLSPGERATLSCRASQDISKYLNWYQQKPGQAPRLLIYHTSRLHSGIPARFSGSGSGTDYTLTISSLQPEDFAVYFCQQGNTLPYTFGQGTKLEIKGGGGSGGGGSGGGGSQVQLQESGPGLVKPSETLSLTCTVSGVSLPDYGVSWIRQPPGKGLEWIGVIWGSETTYYQSSLKSRVTISKDNSKNQVSLKLSSVTAADTAVYYCAKHYYYGGSYAMDYWGQGTLVTVSSGGGGSGGGGSGGGGSGGGGSEVQLQQSGPGLVKPSQTLSLTCAISGDSVSSNSAAWNWIRQSPSRGLEWLGRTYYRSKWYNDYAVSVKSRITINPDTSKNQFSLQLNSVTPEDTAVYYCARDLGWIAVAGTFDYWGQGTLVTVSSGGGGSGGGGSGGGGSQSALTQPASVSGSPGQSITISCTGTSSDVGGYNYVSWYQQHPGKAPKLMIYDVSKRPSGVSNRFSGSKSGNTASLTISGLQAEDEADYYCSSYTSSSLNHVFGTGTKVTVLT
On to B2, for which the “activity in NFAT assay” value in the experiment with CD19 and CD22 was “active against their targets”.

B3: NVS 3: human anti-human CD123 clone expressing CAR123-3 (antibody, V domains shown)
VH: QVQLVQSGAEVKKPGASVKVSCKASGYIFTGYYIHWVRQAPGQGLEWMGWINPNSGGTNYAQKFQGRVTMTRDTSISTAYMELSGLRSDDPAVYYCARDMNILATVPFDIWGQGTLVTVSS
VL: DIQLTQSPSSLSASVGDRVTITCRASQSISSYLNWYQQKPGKAPKLLIYAASSLQSGVPSRFSGSGSGTDFTLTVNSLQPEDFATYYCQQGDSVPLTFGGGTKVEIK
As for B3, in the experiment with cynomolgus CD123, the “cross-reactivity against cynomolgus CD123” value is “cross-reactive against cynomolgus CD123”.

B4: NVS 4: human anti-human CD123 clone expressing CAR123-4 (antibody, V domains shown)
VH: QVQLQQSGAEVKKSGASVKVSCKASGYTFTDYYMHWLRQAPGQGLEWMGWINPNSGDTNYAQKFQGRVTLTRDTSISTVYMELSRLRSDDTAVYYCARDMNILATVPFDIWGQGTMVTVSS
VL: DIQMTQSPSSLSASVGDRVTITCRASQSISSYLNWYQQKPGKAPKLLIYAASSLQSGVPSRFSGSGSGTDFTLTISSLQPEDFATYYCQQGDSVPLTFGGGTKVEIK
For the molecule B4, in the experiment with cynomolgus CD123, the “cross-reactivity against cynomolgus CD123” value is given as “cross-reactive against cynomolgus CD123”.

B5: IL-7: exogenous recombinant human IL-7 (protein, UniProt P13232 26-177, looked up)
Interleukin-7: DCDIEGKDGKQYESVLMVSIDQLLDSMKEIGSNCLNNEFNFFKRHICDANKEGMFLFRAARKLRQFLKMNSTGDFDLHLLKVSEGTTILLNCTGQVKGRKPAALGEAQPTKSLEENKSLKEQKKLNDLCFLKRLLQEIKTCWNKILMGTKEH
For the molecule B5, the “reduction in tumor burden” value in experiment [3] (IL-7 200 ng/mouse i.p. three times weekly from Day 85, mice with suboptimal CART19 response) is listed as 1-3 log. The “CD3-expressing cells in the blood” value in experiment [3] (after IL-7 treatment vs control mice) is “significant increase in CD3+ cells”. Moreover, the “numbers of T cells in blood” value in experiment [3] (upon IL-7 treatment) is “rapid, but variable increase in the numbers of T cells”.

Source of the values: patent publication US10253086B2, “CD20 therapies, CD22 therapies, and combination therapies with a CD19 chimeric antigen receptor (CAR)-expressing cell” (Novartis AG, priority 2015, dated 2019).
